Literature values as cited in patent US4150121A, “Kinin containing injection composition” (THERA Gesellschaft fur Patentverwertung mbH, priority 1976, dated 1979).
Where a SMILES comes first, the peptide text is derived from it.

Details: intracutaneous injection

Molecule | amount causing vehement pain reactions
kallidin: decapeptide kinin: Brady kinin extended at the amino end by an additional lysine residue | about 0.1 microgram in 1 milliliter of solution
NC(N)=NCCC[C@H](NC(=O)[C@H](Cc1ccccc1)NC(=O)[C@@H]1CCCN1C(=O)[C@H](CO)NC(=O)[C@H](Cc1ccccc1)NC(=O)CNC(=O)[C@@H]1CCCN1C(=O)[C@@H]1CCCN1C(=O)[C@@H](N)CCCN=C(N)N)C(=O)O [Bradykinin, (NH2) arginine - proline - proline -glycine - phenylalanine - serine - proline - phenylalanine - arginine (COOH)] (H-RPPGFSPFR-OH) | about 0.1 microgram in 1 milliliter of solution
